Assay results reported in patent US20240190935A1 (EAST CAROLINA UNIVERSITY, published 2024).

T1: human truncated-sCD25 (aa1-212 of NP_000408, C-terminal 8-histidine) (human, UniProt P01589 22-212)
T1 construct: range 1-212; Secreted from stably transfected HEK293F cells and purified on Ni-NTA; No signal peptide cleavage site is stated; also called hCD25-trunc
T1 sequence: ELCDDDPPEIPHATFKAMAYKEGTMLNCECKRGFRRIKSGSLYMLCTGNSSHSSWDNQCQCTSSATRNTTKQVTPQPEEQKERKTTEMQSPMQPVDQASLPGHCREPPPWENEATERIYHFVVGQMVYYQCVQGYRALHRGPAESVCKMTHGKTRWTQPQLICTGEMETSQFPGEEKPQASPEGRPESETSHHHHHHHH

T2: human sCD25(C213T) (aa1-240 of NP_000408 with C213T, C-terminal 8-histidine) (human, UniProt P01589 22-240)
T2 construct: range 1-240; Secreted from stably transfected HEK293F cells and purified on Ni-NTA; the inserted alanine shifts positions in the construct by one; No signal peptide cleavage site is stated; also called hCD25-C213T
T2 sequence: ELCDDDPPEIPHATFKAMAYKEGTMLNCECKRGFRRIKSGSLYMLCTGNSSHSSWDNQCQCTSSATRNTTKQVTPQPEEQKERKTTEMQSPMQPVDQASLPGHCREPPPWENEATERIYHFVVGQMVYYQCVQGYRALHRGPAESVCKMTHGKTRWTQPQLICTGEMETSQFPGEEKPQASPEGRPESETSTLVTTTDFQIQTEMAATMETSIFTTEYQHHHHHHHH

B1: mouse sCD25 (murine soluble CD25, aa1-208 of NP_032393, C-terminal 8-histidine) (receptor)
chain: ELCLYDPPEVPNATFKALSYKNGTILNCECKRGFRRLKELVYMRCLGNSWSSNCQCTSNSHDKSRKQVTAQLEHQKEQQTTTDMQKPTQSMHQENLTGHCREPPPWKHEDSKRIYHFVEGQSVHYECIPGYKALQRGPAISICKMKCGKTGWTQPQLTCVDEREHHRFLASEESQGSRNSSPESETSHHHHHHHH
notes: range 1-208; Secreted from stably transfected HEK293F cells and purified on Ni-NTA; The construct is defined as aa1-208, signal peptide included; also called murine sCD25; mCD25

How the values were obtained:
[1] = target: T1, human truncated-sCD25 (aa1-212 of …); assay: SPR (Biacore T200), steady-state fit; mouse IL-2 (1000-3.9 nM) injected over immobilized human truncated-sCD25; mean ± SD of three injection series [cont'd.) C]
Protocol: (§1) SPR experiments were performed on a Biacore T200 instrument at 25° C. using a flowrate of 30 μL min-1 in a running buffer of HBS-T (10 mM HEPES (pH 7.3), 140 mM NaCl, 0.005% Tween 20). Proteins were immobilized on a CMD200 biosensor chip (Xantec Bioanalytics) using ethyl-3-(3-dimethylaminopropyl)-carbodiimide (EDC)/N-hydroxysuccinimide/(NHS) coupling chemistry. […] A reference surface was created by EDC/NHS activation followed by a seven-minute injection of 1 M ethanolamine (pH 8.5). […] Surfaces were regenerated to baseline by injection of 2M NaCl for three minutes. Each injection series was performed in triplicate. The resulting reference-corrected sensorgrams were blank subtracted using an injection of HBS-T and fit to a steady-state model of binding using T200 Evaluation software. KD values and Rₘₐₓ values are reported as the mean±standard deviation (SD). All figures were prepared using Graphpad Prism 8.0.

[2] = target: B1; assay: SPR (Biacore T200), steady-state fit; mouse IL-2 (1000-3.9 nM) injected over immobilized mouse sCD25; mean ± SD of three injection series
Protocol: as §1

[3] = target: T2, human sCD25(C213T) (aa1-240 of …; assay: SPR (Biacore T200), steady-state fit; mouse IL-2 (1000-3.9 nM) injected over immobilized human sCD25(C213T); mean ± SD of three injection series [cont'd.) B]
Protocol: as §1

[4] = target: T3, anti-mouse CD25-BV421 mAb (clone PC61); assay: Flow cytometry competition: mouse sCD25 (1-1000 nM) pre-incubated with BV421-PC61 for 1 h at 4 °C, then HEK cells expressing full-length mouse CD25 added; blocked: binding of the mAb to CD25 on the cells
T3 construct: Commercial fluorochrome-conjugated mAb (Biolegend), mouse-specific; also called BV421-PC61; anti-mouse CD25 mAb
Protocol: Then, HEKs expressing full-length transmembrane mouse CD25 or human CD25 were added to each tube and incubated for 1 hour at 4° C. and subsequently washed with HBSS two times prior to analyzing surface bound anti-CD25 mAbs by flow cytometry.

Kd [1] [nM]	Kd [2] [nM]	Kd [3] [nM]	IC50 (read off the curve) [4] [nM]	Binder
740	250	430		recombinant murine IL-2 (accession number NP_032392) (ligand, mouse, UniProt P04351 21-169, looked up, also called mouse IL-2; mIL-2) APTSSSTSSSTAEAQQQQQQQQQQQQHLEQLLMDLQELLSRMENYRNLKLPRMLTFKFYLPKQATELKDLQCLEDELGPLRHVLDLTQSKSFQLEDAENFISNIRVTVVKLKGSDNTFECQFDDESATVVDFLRRWIAFCQSIISTSPQ
			~5	B1
